From patent publication US20230348614A1 (VISTERRA, published 2023)

T1: CD138 on the surface of U266 cells (CD138+ human lymphoblastic myeloma cell line) (human, UniProt P18827 23-310)
T1 construct: whole, on cells; also called cell surface CD138; membrane CD138
T1 sequence (looked up): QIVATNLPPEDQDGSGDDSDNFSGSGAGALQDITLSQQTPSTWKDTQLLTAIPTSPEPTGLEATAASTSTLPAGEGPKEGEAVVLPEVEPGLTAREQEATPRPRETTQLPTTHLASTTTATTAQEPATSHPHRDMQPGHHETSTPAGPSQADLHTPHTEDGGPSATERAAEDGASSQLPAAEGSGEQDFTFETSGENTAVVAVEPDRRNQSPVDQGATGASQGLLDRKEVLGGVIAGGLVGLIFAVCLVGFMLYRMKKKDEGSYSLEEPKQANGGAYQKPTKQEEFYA

T2: Biotinylated recombinant soluble human CD138 extracellular domain (Sino Biological, Cat. 11429-H08H) (human, UniProt P18827 18-251, biotin (EZ-Link NHS-SS-PEG4 Biotin) on primary amino groups of lysines, protein:biotin 1:20)
T2 construct: range 18-251; Bought reagent; The limits are printed as approximate; also called biotinylated CD138; recombinant CD138
T2 sequence (looked up): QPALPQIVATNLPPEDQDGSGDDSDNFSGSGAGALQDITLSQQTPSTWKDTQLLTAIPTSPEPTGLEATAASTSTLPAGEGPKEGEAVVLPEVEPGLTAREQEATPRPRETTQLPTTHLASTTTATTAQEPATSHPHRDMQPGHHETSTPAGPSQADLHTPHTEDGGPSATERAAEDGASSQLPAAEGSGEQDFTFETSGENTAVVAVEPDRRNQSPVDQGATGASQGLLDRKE

T3: Recombinant soluble human CD138 extracellular domain (analyte in SPR) (human, UniProt P18827 23-254)
T3 construct: extracellular domain; also called recombinant CD138 (the antigen)
T3 sequence (looked up): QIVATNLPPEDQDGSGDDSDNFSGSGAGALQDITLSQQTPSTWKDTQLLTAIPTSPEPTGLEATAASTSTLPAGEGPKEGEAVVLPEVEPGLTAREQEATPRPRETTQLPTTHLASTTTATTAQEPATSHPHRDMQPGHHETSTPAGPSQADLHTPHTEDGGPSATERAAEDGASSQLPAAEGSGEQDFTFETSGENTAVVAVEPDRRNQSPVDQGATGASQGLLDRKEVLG


Key:
[1] = target: T1, CD138 on the surface of U266 cells …; test: flow cytometry on U266 cells at pH 6.0, MFI against antibody concentration (0.01-10 ug/mL)
Procedure: (§1) Antibody binding to membrane CD138 was evaluated using the CD138+ human lymphoblastic myeloma cell line (U266) and quantified by flow cytometry. Cells were grown in RPMI1640 with 10% FBS. […] Cells were washed (1X) with same pH-matched buffer (and as throughout the experiment) followed by incubation with secondary (detection) goat anti-human Fab( Jackson Immuno Research) conjugated with Alexa Fluor-488 for 30 minutes also at either pH 6.0 or 7.4. Cells were washed once more and resuspended in matching pH buffer and evaluated by flow cytometry. Antibody cell binding was reported as geometric mean fluorescence intensity (MFI). Dose-response curves were generated using GraphPad Prism. Binding data were plotted using nonlinear regression analysis and a 4-parameter curve fit.

[2] = target: T2, Biotinylated recombinant soluble human …; test: BLI (Octet): biotinylated CD138 (10 nM) on streptavidin tips, antibody 12.5 and 25 nM, pH 6.0, 1:1 fit
Procedure: (§2) Binding experiments were carried using assay buffer comprised of 100 mM Sodium Phosphate+ 150 mM NaCl + 0.02% Tween-20 and adjusted to target pH of 7.4, 6.0, 6.4, or 6 using appropriate ratios of monobasic and dibasic sodium phosphate buffer. 25 nM biotinylated CD138 was loaded onto Streptavidin capture Octet (SA) tips for 120 seconds (antigen loading step) followed by antibody binding for associated for 300 seconds (association step), and subsequently dissociation for 300 seconds (dissociation step). All steps were carried out at the respective target pH using the corresponding pH adjusted buffers.
(§3) Modifications to this protocol included lowering the loading concentration of biotinylated CD138 from 25 nM to 10 nM and varying the test antibody concentrations ranging from 25 nM down to 0.8 nM (as 2-fold dilutions). The rationale for doing so was to potentially reduce any target avidity effects while also looking at the analyte concentration dependency.
(§4) Data were analyzed for purposes of calculating approximate kinetic binding parameters and apparent binding affinities based on these rates. Data was fit assuming a 1:1 binding model.

[3] = target: T3, Recombinant soluble human CD138 …; test: SPR (Carterra LSA): antibody captured by anti-human IgG, CD138 as analyte, pH 7.4, 1:1 fit
Excerpt: (§5) This method as described, immobilizes the target (recombinant CD138) through biotinylation-streptavidin capture. Such a method may, in principle, lead to biases in binding due to either chemical modification of the capture ligand and/or avidity effects due to immobilization of this ligand on the biosensor. Moreover, this method depends on diffusion-based principles of dissociation leading to non-equilibrium binding states. Surface plasmon resonance is an orthogonal, commonly used method for determining binding kinetics and deriving affinity values based on these parameters. In this method, antibodies were directly coupled to the sensor chip and probed with several concentrations of recombinant CD138 (the antigen) varying from 100 nM to 41 nM. This evaluation was completed under two different pH conditions, i.e., pH 6.0 and pH […].
(§6) Antibody-CD138 binding was evaluated on a Carterra LSA high throughput SPR instrument. Binding experiments were carried out using binding buffer comprising 100 mM sodium phosphate, 150 mM NaCl and 0.05% Tween-20 buffer. Buffers were adjusted to target pH of 7.4 and 6.0, by use of sodium hydroxide or HCL, respectively. All steps were also carried out independently at these respective buffer pHs. Antibodies were captured on the SPR (CMDP) chip using an anti-human IgG covalently coupled to the CMDP chip based on standard protocols, as described by the instrument manufacturer, and to create a uniform lawn on the chip surface at a target 25 nM anti-CD138 antibody concentration. Binding to CD138 was achieved by uniformly passing binding analyte with increasing concentrations of CD138 (41 nM-100 nM) for 15 minutes and allowing dissociation for 20 minutes. Analyte was flowed over the chip at a rate of 2 milliliters/minute. Raw binding data were processed using kinetics data analysis software also provided by the manufacturer (Carterra) following as 2X background subtraction that used the first six injections of buffer blanks and the internal machine reference controls. Kinetic data was analysed using a global fit and assuming a 1:1 binding interaction. Further analysis of individual binding curves (sensorgrams) with best fits were used to refine the calculation of kinetic parameters.

[4] = target: T3, Recombinant soluble human CD138 …; test: SPR (Carterra LSA): antibody captured by anti-human IgG, CD138 as analyte, pH 6.0, 1:1 fit
Excerpt: as §5
Antibody-CD138 binding was evaluated on a Carterra LSA high throughput SPR instrument. Binding experiments were carried out using binding buffer comprising 100 mM sodium phosphate, 150 mM NaCl and 0.05% Tween-20 buffer. Buffers were adjusted to target pH of 7.4 and 6.0, by use of sodium hydroxide or HCL, respectively. All steps were also carried out independently at these respective buffer pHs. […] Kinetic data was analysed using a global fit and assuming a 1:1 binding interaction. […]

[5] = target: T2, Biotinylated recombinant soluble human …; test: BLI (Octet): biotinylated CD138 (10 nM) on streptavidin tips, antibody 12.5 and 25 nM, pH 6.0, 1:1 fit; pH 6.0
Procedure: as §2, §3, §4

[6] = target: T1, CD138 on the surface of U266 cells …; test: flow cytometry on U266 cells at pH 6, MFI against antibody concentration (about 0.03-30 ug/mL)
Procedure: as §1
Binding was evaluated as described.

[7] = target: T3, Recombinant soluble human CD138 …; test: SPR (Carterra LSA): antibody captured by anti-human IgG, CD138 as analyte, pH 6.0, 1:1 fit; pH 6.0, SPR
Excerpt: as §5, §6

[8] = target: T1, CD138 on the surface of U266 cells …; test: flow cytometry on U266 cells at pH 6.5, MFI against antibody concentration (about 0.03-30 ug/mL)

Binder	EC50 (read off the curve) [1] [µg/mL]	Kd [2] [nM]	koff [2] [s⁻¹]	kon [2] [M⁻¹ s⁻¹]	Kd [5] [nM]	koff [5] [s⁻¹]	kon [5] [M⁻¹ s⁻¹]	Kd [7] [nM]	koff [7] [s⁻¹]	kon [7] [M⁻¹ s⁻¹]	further results
Ab175 (antibody, V domains shown, also called mAb Ab175) VH: EVQLVQSGAEVKKPGASVKVSCKASGYSFSSYYMHWVRQAPGQGLEWMGTIHPSDSTTNYNQKFQGRVTMTVDTSTRTAYMELSSLRSEDTAVYYCADFLYWGQGTTVTVSS VL: DIVMTQTPLSLSVTPGQPASISCKSSKSLLYKDGHTYLNWFLQKPGQSPQLLIYVVSTRASGVPDRFSGSGSGTDFTLKISRVEAEDVGVYYCQQLVEYPYTFGQGTKLEIK	~0.2	–	–	–	–	–	–	–	–	–	–
Antibody Ab30 (antibody, V domains shown) VH: EVQLVQSGAEVKKPGASVKVSCKASGYSFSSYYMHWVRQAPGQGLEWMGTIHPEDSTTNYNQKFQGRVTMTVDTSTRTAYMELSSLRSEDTAVYYCADFVYWGQGTTVTVSS VL: DIVMTQTPLSLSVTPGQPASISCKSSKSLLYKDGKTYLNWFLQKPGQSPQLLIYVVSTRASGVPDRFSGSGSGTDFTLKISRVEAEDVGVYYCQQLVEYPYTFGQGTKLEIK	–	4.6	0.0034	720000	–	–	–	–	–	–	–
Antibody Ab17 (antibody, V domains shown, also called mAb 17; Mab 17) VH: EVQLVQSGAEVKKPGASVKVSCKASGYSFSSYYMHWVRQAPGQGLEWMGTIHPSDSTTNYNQKFQGRVTMTVDTSTRTAYMELSSLRSEDTAVYYCADFVYWGQGTTVTVSS VL: DIVMTQTPLSLSVTPGQPASISCKSSKSLLYKDGHTYLNWFLQKPGQSPQLLIYVVSTRASGVPDRFSGSGSGTDFTLKISRVEAEDVGVYYCQQLVEYPYTFGQGTKLEIK	~0.5	–	–	–	6.2	0.0051	860000	16	0.0026	170000	–

Further lines, with some results ahead:

EC50 (read off the curve) [1] [µg/mL]	Kd [2] [nM]	koff [2] [s⁻¹]	kon [2] [M⁻¹ s⁻¹]	Kd [5] [nM]	koff [5] [s⁻¹]	kon [5] [M⁻¹ s⁻¹]	Kd [7] [nM]	koff [7] [s⁻¹]	kon [7] [M⁻¹ s⁻¹]	Binder	further results
–	0.98	0.0011	1.2e+06	–	–	–	–	–	–	Antibody Ab71 (antibody, V domains shown) VH: QVQLVQSGAEVKKPGASVKVSCKASGYSFSSYYMHWVRQAPGQGLEWMGDIHPSDSTTNYNQKFQGRVTMTVDTSTRTAYMELSSLRSEDTAVYYCANFVYWGQGTTVTVSS VL: DIVMTQTPLSLSVTPGQPASISCKSSKSLLYKDGKTYLNWFLQKPGQSPQLLIYVVSTRASGVPDRFSGSGSGTDFTLKISRVEAEDVGVYYCQQLVEYPYTFGQGTKLEIK	Kd [3]: 21 nM; koff [3]: 0.00028 s⁻¹; kon [3]: 10000 M⁻¹ s⁻¹; koff [4]: 0.0018 s⁻¹; kon [4]: 300000 M⁻¹ s⁻¹
~1	6.4	0.0036	560000	–	–	–	–	–	–	Antibody Ab32 (antibody, V domains shown) VH: EVQLVQSGAEVKKPGASVKVSCKASGYSFSSYYMHWVRQAPGQGLEWMGTIHPSDSTTNYNQKFQGRVTMTVDTSTRTAYMELSSLRSEDTAVYYCADFLYWGQGTTVTVSS VL: DIVMTQTPLSLSVTPGQPASISCKSSKSLLYKDGKTYLNWFLQKPGQSPQLLIYVVSTRASGVPDRFSGSGSGTDFTLKISRVEAEDVGVYYCQQLVEYPYTFGQGTKLEIK	–
~0.7	–	–	–	4	0.0045	1.2e+06	12	0.0026	220000	Antibody Ab28 (antibody, V domains shown, also called Mab 28) VH: EVQLVQSGAEVKKPGASVKVSCKASGYSFSSYYMHWVRQAPGQGLEWMGTIYPGDSTTNYNQKFQGRVTMTVDTSTRTAYMELSSLRSEDTAVYYCADFVYWGQGTTVTVSS VL: DIVMTQTPLSLSVTPGQPASISCKSSKSLLYKDGKTYLNWFLQKPGQSPQLLIYVVSTRASGVPDRFSGSGSGTDFTLKISRVEAEDVGVYYCQQLVEYPYTFGQGTKLEIK	EC50 (read off the curve) [6]: ~0.5 µg/mL; EC50 (read off the curve) [8]: ~0.8 µg/mL
–	–	–	–	2.9	0.003	1e+06	16	0.0029	180000	Antibody Ab137 (antibody, V domains shown) VH: QVQLVQSGAEVKKPGASVKVSCKASGYSFSSYYMHWVRQAPGQGLEWMGTIHPSDSTTNYNQKFQGRVTMTVDTSTRTAYMELSSLRSEDTAVYYCANFVYWGQGTTVTVSS VL: DIVMTQTPLSLSVTPGQPASISCKSSKSLLYKDGKTYLNWFLQKPGQSPQLLIDVVSTRASGVPDRFSGSGSGTDFTLKISRVEAEDVGVYYCQQLVEYPYTFGQGTKLEIK	EC50 (read off the curve) [6]: ~0.4 µg/mL; EC50 (read off the curve) [8]: ~0.7 µg/mL
